The test has as its target TβR-II/TGF-β3 binary complex (UniProt P37173). Nature of the test: SPR. A general note: In SPR one partner is held on a chip, and binding of the other changes the refractive index at the surface.

The Kd is a measure of binding affinity in units of concentration. For TβR-I 7–91 (domain or fragment), the Kd came out at 310 nM.

The record behind these values is PMC3576881.
